Patent US20260234269A1 (TRUEBINDING, published 2026)
Positions count from the first letter of the chain named.

How the values were obtained:
[1] = biological target: T1, Human Galectin-3 protein (Acro Biosystems, GA3-H5129) (human, UniProt P17931 2-250); assay: SPR Biacore T200, antibody captured, Galectin-3 analyte
T1 construct: Bought protein; also called hGal3; Gal3; not shown: linker-spaced 6-histidine tag

hGal3 peptide 7 [2] = biological target: T2, hGal3 peptide 7 (human); assay: peptide ELISA, 20-mer library (Epitope Mapping)
T2 peptide: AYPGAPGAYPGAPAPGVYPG

hGal3 peptide 1 [3] = biological target: T3, hGal3 peptide 1 (human); assay: peptide ELISA, 20-mer library (Epitope Mapping)
T3 construct: also called peptide 1 of Gal3
T3 peptide: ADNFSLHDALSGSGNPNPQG

hGal3 peptide 8 = biological target: T4, hGal3 peptide 8 (human); assay: peptide ELISA, 20-mer library (Epitope Mapping)
T4 peptide: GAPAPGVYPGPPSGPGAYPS

[4] = biological target: T1, Human Galectin-3 protein (Acro …); assay: ELISA, hGal3 coated, antibody 3 ug/mL, competitor hTIM3
[5] = biological target: T1, Human Galectin-3 protein (Acro …); assay: ELISA, hGal3 coated, competitor hTIM3 (FIG. 24)
hGal3 peptide 2 [6] = biological target: T5, hGal3 peptide 2 (human); assay: peptide ELISA, 20-mer library (Epitope Mapping)
T5 peptide: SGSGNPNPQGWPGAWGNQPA

hGal3 peptide 4 = biological target: T6, hGal3 peptide 4 (human); assay: dot blot, 20 ug peptide per dot, anti-mIgG HRP
T6 peptide: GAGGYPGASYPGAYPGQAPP

hGal3 peptide 7 [7] = biological target: T2, hGal3 peptide 7; assay: dot blot, 20 ug peptide per dot, anti-mIgG HRP
hGal3 peptide 1 [8] = biological target: T3, hGal3 peptide 1; assay: dot blot, 20 ug peptide per dot, anti-mIgG HRP
hGal3 peptide 2 [9] = biological target: T5, hGal3 peptide 2; assay: dot blot, 20 ug peptide per dot, anti-mIgG HRP
[10] = biological target: T7, mouse Gal3 on mouse cells (B16F10 tumor cells, RAW264.7 macrophages) (mouse, UniProt P16110 2-264); assay: flow cytometry, RAW cells, IMT001 10 ug/ml
T7 construct: whole, on cells; also called mGal3; Gal3 on RAW cells
T7 sequence (P16110 2-264, one chain of several): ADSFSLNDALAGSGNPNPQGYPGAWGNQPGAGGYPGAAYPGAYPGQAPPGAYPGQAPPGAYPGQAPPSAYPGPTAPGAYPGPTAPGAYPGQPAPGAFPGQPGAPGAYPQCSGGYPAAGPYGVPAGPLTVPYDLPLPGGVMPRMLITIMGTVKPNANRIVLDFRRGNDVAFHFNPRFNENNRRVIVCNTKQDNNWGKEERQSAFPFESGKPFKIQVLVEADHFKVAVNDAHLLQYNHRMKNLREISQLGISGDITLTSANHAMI

[11] = biological target: T8, mouse Gal3 protein (BioLegend) (mouse, UniProt P16110 2-264, limits assumed); assay: ELISA, mGal3 coated, mouse TIM-3 Fc
T8 construct: also called mGal3
T8 sequence (P16110 2-264 limits assumed): as the sequence (P16110 2-264, one chain of several) above

[12] = biological target: T9, Flag-tagged human Gal3 protein on A20 cells (A20 Gal3 cells) (human, UniProt P17931 2-250); assay: flow cytometry, A20 Gal3 cells, anti-hFc APC
T9 construct: also called A20 cells overexpressing human Gal3; not shown: Flag tag

B1: 20D11.2C6 (antibody, V domains shown)
VH: EVQLQQSGPELVKPGASVKISCKASGYTFTDFYINWVKQSHGKSLEWIGDINPKNGGINYNPKFKIKATLTVDKSSSTSYMDLRGLTSEDSAVYYCTSGYGFPYWGQGTLVTVSA
VL: DIQMNQSPSSLSASLGDTITITCRASQNIYIWLSWYQQKPGNIPKLLIYKASNLHTGVPSRFSGSGSGTDFTLTISTLQPEDIATYFCLQGQSYPLTFGAGTKLEMK
notes: murine antibody
With B1 the Kd [1] was 27.8 nM, the binding result (hGal3 peptide 7 [2]) was “binds” and the binding result (hGal3 peptide 1 [3]) was “binds”. The binding result (hGal3 peptide 8) was “binds” and the “GAL3-TIM3 Blocking @ 3 ug/mL” value [4] was 40%.

B2: 15G7.2A7 (antibody, V domains shown)
VH: B1 VH with F32Y, I34M, K54N, I58T, P62Q, I66G, S79A, D82E, G85S
VL: B1 VL with T20S, Y30N, K45Q, T77S, F87Y, E105V
notes: murine antibody
For B2, the Kd [1] was 11.3 nM, the binding result (hGal3 peptide 7 [2]) was “binds” and the binding result (hGal3 peptide 1 [3]) was “binds”. For the same binder, the binding result (hGal3 peptide 8) was “binds” and the “GAL3-TIM3 Blocking @ 3 ug/mL” value [4] was 48%.

B3: 13G4.2F8 (antibody, V domains shown)
VH: QVQLQQPGAELVKPGASVKLSCKASGYTFTSYWMHWVKQRPGQGLEWIGMIHPNSGSTDYNEKFKNKATLNVDKSSSTAYIQLSSLTSEDSAVYYCTRWGIYYYARDYWGQGTTLTVSS
VL: DIVMTQSQKFMSTSVGERVSITCKASQNVGTNVAWYQQKAGQSLELLIYGASNRHTGVPDRFTGSGSGTDFTLTITNVQSEDMTNYFCEQYSNFPLTFGAGTKLELK
notes: murine antibody
B3 was tested, and the Kd [1] was 2.53 nM, the “reduction of TIM3-GAL3 binding” value [5] was at most 25% and the “GAL3-TIM3 Blocking @ 3 ug/mL” value [4] was 0%.

B4: 24D12.2H9 (antibody, V domains shown)
VH: QVQLKQSGPGLVQPSQSLSITCTVSGFSLTSYGVHWVRQAPGKGLEWLGVIWSGGSTDYNAAFMSRLSISKDNSKSQVFFKMNSLQADDTAIYYCAKSPDGYDVAWFGYWGQGTLVTVSA
VL: DIVMTQSHKFMSTSVGDRVSITCKASQDVRTAVAWYQQKPGQSPKLLIYWASTRHTGVPDRFTGSGSGTDFTLTLSNVQSEDLADYFCQQYSSYPWTFGGGTKLEIK
notes: murine antibody
B4 was tested, and the Kd [1] was 4.13 nM, the “reduction of TIM3-GAL3 binding” value [5] was at most 25% and the “GAL3-TIM3 Blocking @ 3 ug/mL” value [4] was 0%.

B5: 7D8.2D8 (antibody, V domains shown)
VH: EVQLVESGGGLVKPGGSLKLSCAASGFTFSSYAMSWVRQTPEKRLEWVATISDGGIYTYYPDNVKGRFTISRDNAKNNLFLQMSHLKSEDTAMYYCVRDGGYWGQGTTLTVSS
VL: DVLMTQTPLSLPVSLGDQASISCRSSQSIVHSNGNTYLEWYLQKPGQSPKLLIYKVSNRFSGVPDRFSGSGSGTDFTLKISRVEAEDLGVYYCFQGSHVPLTFGAGTKLELK
notes: murine antibody
B5 was tested, and the Kd [1] was 2.49 nM, the binding result (hGal3 peptide 7 [2]) was “binds” and the binding result (hGal3 peptide 2 [6]) was “binds”. For the same binder, the “GAL3-TIM3 Blocking @ 3 ug/mL” value [4] was 12%.

B6: 15F10.2D6 (antibody, V domains shown)
VH: B5 VH with T28A, I56V, P61T, N63H, K76E, N77D, F80Y
VL: B5 VL with S32N, A105G
notes: murine antibody
With B6 the Kd [1] was 2.06 nM, the binding result (hGal3 peptide 7 [2]) was “binds” and the binding result (hGal3 peptide 2 [6]) was “binds”. For the same binder, the “GAL3-TIM3 Blocking @ 3 ug/mL” value [4] was 19%.

B7: mIMT001 (IMT001) (antibody, V domains shown)
VH: QIQLVQSGPELKKPGETVKISCKASGYTFTNYGMNWVKQAPGKGLKWMGWINTNTGEPTYVEEFKGRFAFSLETSASTAYLQINNLKNEDTATYFCAPYDNFFAYWGQGTLVTVSA
VL: DIVITQDELSNPVTSGESVSISCRSSKSLLYKDGKTYLNWFLQRPGQSPQLLIYLMSTHASGVSDRFSGSGSGTDFTLEISRVKAEDVGVYYCQQLVDYPLTFGAGTKLELK
notes: treated here as one molecule; also called mAb IMT001; Gal3 antibody clone IMT001
In the case of B7, the Kd [1] is reported as 1.67 nM, the “GAL3-TIM3 Blocking @ 3 ug/mL” value [4] is reported as 80% and the binding result (hGal3 peptide 4) is reported as “no binding (tested: 1 ug/ml)”. B7: no binding (tested: 1 ug/ml) (hGal3 peptide 7 [7]); no binding (tested: 1 ug/ml) (hGal3 peptide 1 [8]); no binding (tested: 1 ug/ml) (hGal3 peptide 2 [9]). The “MFI, fold over isotype control antibody” value [10] was over 10 fold.

B8: mouse TIM-3 Fc protein (R&D systems) (Fc fusion, UniProt Q8VIM0 20-191, looked up)
chain: RSLENAYVFEVGKNAYLPCSYTLSTPGALVPMCWGKGFCPWSQCTNELLRTDERNVTYQKSSRYQLKGDLNKGDVSLIIKNVTLDDHGTYCCRIQFPGLMNDKKLELKLDIKAAKVTPAQTAHGDSTTASPRTLTTERNGSETQTLVTLHNNNGTKISTWADEIKDSGETIR
notes: also called mTIM-3 Fc; mTIM-3-Fc; not shown: Fc, detected with anti-human Fc / anti-human IgG
B8: binds [11]; binds [12].
